Results published in patent publication US20150164800A1, “REGULATING THE INTERACTION BETWEEN TAM LIGANDS AND LIPID MEMBRANES WITH EXPOSED PHOSPHATIDYL SERINE” (priority 2012, published 2015).

Key:
Mer [1] = biological target: T1, Mer (Mus musculus, UniProt Q60805); assay: Gas6-stimulated TAM receptor activation (phosphotyrosine IP-immunoblot) in BMDMs, Mer; type: cell-based; conditions: WT-BMDMs pre-treated 30 min, stimulated with 10 nM Gas6 for 10 min; FIG. 4B
Method: Immunoprecipitation and immunoblot analysis was conducted as described above.

EbGP-pseudotyped virus = type: cell-based, mouse; conditions: 300 nM, 24 h post-infection, FIG. 4C
Axl [2] = biological target: Axl (Mus musculus, UniProt Q00993); type: cell-based
Sequence of Axl (Mus musculus, UniProt Q00993) (Q00993 19-888): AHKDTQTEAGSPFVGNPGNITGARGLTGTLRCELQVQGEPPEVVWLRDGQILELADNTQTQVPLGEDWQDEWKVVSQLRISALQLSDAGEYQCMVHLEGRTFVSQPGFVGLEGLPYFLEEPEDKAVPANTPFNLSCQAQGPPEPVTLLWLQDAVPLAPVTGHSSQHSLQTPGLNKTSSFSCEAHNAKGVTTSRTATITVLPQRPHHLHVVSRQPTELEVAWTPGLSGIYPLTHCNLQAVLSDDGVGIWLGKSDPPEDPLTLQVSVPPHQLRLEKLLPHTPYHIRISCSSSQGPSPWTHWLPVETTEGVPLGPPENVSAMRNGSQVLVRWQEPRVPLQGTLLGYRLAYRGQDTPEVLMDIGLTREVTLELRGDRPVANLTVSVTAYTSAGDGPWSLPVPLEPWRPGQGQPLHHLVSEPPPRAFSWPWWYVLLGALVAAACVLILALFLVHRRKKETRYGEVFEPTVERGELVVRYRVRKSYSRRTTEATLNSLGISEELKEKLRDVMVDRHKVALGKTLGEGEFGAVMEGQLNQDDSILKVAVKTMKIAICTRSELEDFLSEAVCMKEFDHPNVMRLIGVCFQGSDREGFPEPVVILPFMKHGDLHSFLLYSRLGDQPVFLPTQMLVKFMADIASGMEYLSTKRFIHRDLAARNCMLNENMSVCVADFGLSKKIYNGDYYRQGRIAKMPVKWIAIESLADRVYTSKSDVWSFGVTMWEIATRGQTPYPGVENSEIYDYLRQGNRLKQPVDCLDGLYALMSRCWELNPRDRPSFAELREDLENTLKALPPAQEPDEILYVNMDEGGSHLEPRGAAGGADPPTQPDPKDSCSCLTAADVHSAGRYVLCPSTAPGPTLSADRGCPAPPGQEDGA
Sequence of Axl (Q00993 19-888): as above

Mer [3] = biological target: T1, Mer; type: cell-based; conditions: WT-BMDCs
Axl [4] = type: cell-based, mouse; conditions: 100 nM, BMDCs; FIG. 5B
DENV = conditions: Axl-expressing HEK293 cells; concentration approximately 7-fold higher than 100 nM; Meertens et al. (2012); cited from earlier work

T1 sequence (Q60805 19-994): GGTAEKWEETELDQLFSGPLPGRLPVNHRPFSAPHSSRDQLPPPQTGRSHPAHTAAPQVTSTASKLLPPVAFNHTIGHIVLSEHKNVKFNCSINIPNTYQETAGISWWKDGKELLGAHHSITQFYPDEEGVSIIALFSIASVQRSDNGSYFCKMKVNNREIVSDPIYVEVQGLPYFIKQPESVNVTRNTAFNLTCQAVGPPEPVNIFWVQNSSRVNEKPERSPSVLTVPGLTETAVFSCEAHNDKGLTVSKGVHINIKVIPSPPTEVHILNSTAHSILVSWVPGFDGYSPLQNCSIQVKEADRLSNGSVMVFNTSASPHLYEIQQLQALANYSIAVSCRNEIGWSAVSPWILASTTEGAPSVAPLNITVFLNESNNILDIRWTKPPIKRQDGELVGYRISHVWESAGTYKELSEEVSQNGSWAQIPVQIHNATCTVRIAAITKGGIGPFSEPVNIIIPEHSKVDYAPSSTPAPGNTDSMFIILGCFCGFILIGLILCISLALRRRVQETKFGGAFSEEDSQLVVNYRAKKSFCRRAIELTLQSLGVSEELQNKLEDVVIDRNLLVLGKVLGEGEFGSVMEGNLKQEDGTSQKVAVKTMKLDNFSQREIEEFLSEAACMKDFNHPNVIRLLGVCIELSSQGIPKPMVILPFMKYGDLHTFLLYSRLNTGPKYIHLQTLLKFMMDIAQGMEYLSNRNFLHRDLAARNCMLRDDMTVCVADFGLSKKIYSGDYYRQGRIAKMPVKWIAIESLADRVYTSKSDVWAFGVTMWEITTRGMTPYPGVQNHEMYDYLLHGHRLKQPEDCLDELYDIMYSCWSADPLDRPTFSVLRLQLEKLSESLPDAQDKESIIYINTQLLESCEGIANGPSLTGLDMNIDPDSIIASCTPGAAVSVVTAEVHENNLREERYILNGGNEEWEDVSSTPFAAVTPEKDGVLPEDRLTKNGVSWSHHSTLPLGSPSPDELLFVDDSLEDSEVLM

CCOc1ccn(-c2ccc(F)cc2)c(=O)c1C(=O)Nc1ccc(Oc2ccnc(N)c2Cl)c(F)c1 [BMS-777607]
concentrations effectively inhibiting ligand-dependent receptor activation (Mer) (Mer [1]): 30 to 300 nM | effect on infection deficiency of TAM TKO BMDCs (HIV-1 DNA level) (EbGP-pseudotyped virus; TAM TKO-BMDCs): not further reduced | susceptibility to virus infection (HIV-1 DNA level) versus untreated WT BMDCs (EbGP-pseudotyped virus; WT-BMDCs): much less susceptible

Gas6: recombinant mouse Gas6, pan-TAM ligand
potentiation of Gas6-induced Axl activation by bald HIV-1 virions versus VSVg-pseudotyped virions (Axl [2]; BMDCs, bald virions lacking viral glycoproteins, FIG. 6B): equally competent | virus-mediated potentiation of ligand-triggered signaling with MAV-1 (Axl) (Axl [2]; WT-BMDCs, 1 nM mGas6 plus non-enveloped MAV-1): not seen | Axl activation by ligand alone (Axl [2]; WT-BMDCs, 0.25-1 nM mGas6, 5 min, FIG. 2B): rapid dose-dependent activation | effect of VSVg pseudotyped virus on stimulatory effect of ligand (Axl activation) (Axl [2]; WT-BMDCs, ligand plus enveloped VSVg pseudotyped virus, dose-response shifted to lower concentrations): dramatically potentiated

Protein S: purified human Protein S, TAM ligand (Mer and Tyro3 ligand)
virus-mediated potentiation of ligand-triggered signaling with MAV-1 (Mer) (Mer [3]; 1 nM hProS plus non-enveloped MAV-1): not seen | Mer activation by ligand alone (Mer [3]; 0.5-2 nM hProS, 5 min, FIG. 2A): rapid dose-dependent activation | effect of VSVg pseudotyped virus on stimulatory effect of ligand (Mer activation) (Mer [3]; ligand plus enveloped VSVg pseudotyped virus, dose-response shifted to lower concentrations): dramatically potentiated

B1: Annexin V: a known PtdSer-binding protein (protein, UniProt P08758 2-320, looked up)
Annexin A5: AQVLRGTVTDFPGFDERADAETLRKAMKGLGTDEESILTLLTSRSNAQRQEISAAFKTLFGRDLLDDLKSELTGKFEKLIVALMKPSRLYDAYELKHALKGAGTNEKVLTEIIASRTPEELRAIKQVYEEEYGSSLEDDVVGDTSGYYQRMLVVLLQANRDPDAGIDEAQVEQDAQALFQAGELKWGTDEEKFITIFGTRSVSHLRKVFDKYMTISGFQIEETIDRETSGNLEQLLLAVVKSIRSIPAYLAETLYYAMKGAGTDDHTLIRVMVSRSEIDLFNIRKEFRKNFATSLYSMIKGDTSGDYKKALLLLCGEDD
effect on VSVg-HIV potentiation of the Gas6 dose-response curve for Axl activation (Axl [4]): significantly attenuated | reduction in DENV infection (DENV): ~60%
